The results in this text go back to PMC4394031 (Structure (London, England : 1993), 2015).

In data set [1] the target is T1, Human Nrp2-b1b2 (Neuropilin-2 domains b1b2, residues 276–595) (human, UniProt O60462 276-595).
T1 sequence (looked up): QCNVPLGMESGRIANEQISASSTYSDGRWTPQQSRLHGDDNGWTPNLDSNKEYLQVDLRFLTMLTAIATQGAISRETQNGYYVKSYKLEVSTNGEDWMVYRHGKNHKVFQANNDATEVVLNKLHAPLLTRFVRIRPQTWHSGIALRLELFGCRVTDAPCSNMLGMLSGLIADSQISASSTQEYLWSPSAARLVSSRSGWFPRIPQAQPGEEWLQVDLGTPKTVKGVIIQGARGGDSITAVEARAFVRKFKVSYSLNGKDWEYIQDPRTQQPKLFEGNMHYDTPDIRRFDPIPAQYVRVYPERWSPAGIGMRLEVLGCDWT
Description: plate competition assay with AP-tagged ligand.

The data set “crystal structure” deals with the molecule itself. Description: crystal structure.
The target of data set [2] is T1, Human Nrp2-b1b2 (Neuropilin-2 domains …). Kind of data set: differential scanning fluorimetry.
Data set [3] has the same target. Description: crystal structure.
Data set [4] has as its target T2, AP-VEGF-C (alkaline phosphatase-tagged VEGF-C, residues 108–223) (UniProt P97953 108-223).
T2 sequence (looked up): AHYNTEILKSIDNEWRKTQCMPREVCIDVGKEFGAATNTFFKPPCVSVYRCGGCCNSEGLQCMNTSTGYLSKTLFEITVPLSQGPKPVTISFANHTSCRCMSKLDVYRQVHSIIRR
Kind of data set: plate competition assay with AP-tagged ligand.

Turning to ATWLPPR [ATWLPPR, an optimized peptide inhibitor of Nrp], the IC50 (as a rule, the concentration that gives 50% inhibition) in data set [1] came out at 10 µM.

B1: Nrp2-b1b2/VEGF-C fusion (human Nrp2 residues 276–595 with VEGF-C 219-SIIRR-223 fused to its C-terminus) (other)
chain: QCNVPLGMESGRIANEQISASSTYSDGRWTPQQSRLHGDDNGWTPNLDSNKEYLQVDLRFLTMLTAIATQGAISRETQNGYYVKSYKLEVSTNGEDWMVYRHGKNHKVFQANNDATEVVLNKLHAPLLTRFVRIRPQTWHSGIALRLELFGCRVTDAPCSNMLGMLSGLIADSQISASSTQEYLWSPSAARLVSSRSGWFPRIPQAQPGEEWLQVDLGTPKTVKGVIIQGARGGDSITAVEARAFVRKFKVSYSLNGKDWEYIQDPRTQQPKLFEGNMHYDTPDIRRFDPIPAQYVRVYPERWSPAGIGMRLEVLGCDWTSIIRR
As for B1, the binding result in “crystal structure” was “binds”.
As for WRQVHSIIRR [processed VEGF-C C-terminus peptide (215-RQVHSIIRR-223)], in data set [2], binding was characterised by a dissociation constant (Kd) of 199 µM and the “Tm of Nrp2-b1b2 with 0.5 mM peptide (48.8°C without)” value is 50.3 °C.
As for SIIRR [VEGF-C C-terminus (219-SIIRR-223), the C-terminal five amino acids of mature VEGF-C], the binding result in data set [3] was “binds”.

B2: human Nrp2-b1 (residues 276–430) (domain or fragment, UniProt O60462 276-430, looked up)
chain: QCNVPLGMESGRIANEQISASSTYSDGRWTPQQSRLHGDDNGWTPNLDSNKEYLQVDLRFLTMLTAIATQGAISRETQNGYYVKSYKLEVSTNGEDWMVYRHGKNHKVFQANNDATEVVLNKLHAPLLTRFVRIRPQTWHSGIALRLELFGCRVT
Take B2: the IC50 in data set [4] was 1.5 µM.
